# Experimental data taken from doi:10.1101/2025.11.13.688182.
# Target: RAD51 full-length [F86E, A89E], co-expressed with BRC repeats (human) (UniProt Q06609)
# Test: SEC-SAXS
# Chain of UniProt Q06609 (Q06609 whole entry F86E/A89E): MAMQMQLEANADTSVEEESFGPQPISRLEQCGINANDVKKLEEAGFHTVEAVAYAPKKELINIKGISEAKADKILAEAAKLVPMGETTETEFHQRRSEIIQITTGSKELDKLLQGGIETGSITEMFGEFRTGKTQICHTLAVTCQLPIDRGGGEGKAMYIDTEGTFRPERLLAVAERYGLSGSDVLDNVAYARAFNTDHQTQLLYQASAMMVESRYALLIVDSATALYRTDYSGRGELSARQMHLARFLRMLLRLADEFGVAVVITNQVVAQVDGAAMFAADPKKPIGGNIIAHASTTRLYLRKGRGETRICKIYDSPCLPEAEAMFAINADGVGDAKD
row,"stoichiometry, BRC repeats to RAD51 (RAD51 per BRC repeat)",Substance
1,1,BRCA2 truncation BRC1-2 (from UniProt P51587 1-3418) (domain or fragment)
2,1,BRCA2 truncation BRC2-4 (from UniProt P51587 1-3418) (domain or fragment)

# Continued, substance first:
row,Substance,"stoichiometry, BRC repeats to RAD51 (RAD51 per BRC repeat)"
1,BRCA2 truncation BRC1-4 (from UniProt P51587 1-3418) (domain or fragment),1
2,BRCA2 truncation BRC2-3 (from UniProt P51587 1-3418) (domain or fragment),1
3,BRCA2 truncation BRC3-4 (from UniProt P51587 1-3418) (domain or fragment),1
